Experimental findings from article PMC10658506, “An engineered interleukin‐11 decoy cytokine inhibits receptor signaling and proliferation in lung adenocarcinoma” (Bioengineering & Translational Medicine, 2023) are described below.

In test [1] the target is T1, mIL-11R-mFc (mouse, UniProt Q64385 24-372).
T1 construct: interleukin-11 receptor, mouse (mIL-11R), mouse Fc fusion; also called mouse IL-11R; source: bought: R&D Systems, 7405-MR
T1 sequence (looked up): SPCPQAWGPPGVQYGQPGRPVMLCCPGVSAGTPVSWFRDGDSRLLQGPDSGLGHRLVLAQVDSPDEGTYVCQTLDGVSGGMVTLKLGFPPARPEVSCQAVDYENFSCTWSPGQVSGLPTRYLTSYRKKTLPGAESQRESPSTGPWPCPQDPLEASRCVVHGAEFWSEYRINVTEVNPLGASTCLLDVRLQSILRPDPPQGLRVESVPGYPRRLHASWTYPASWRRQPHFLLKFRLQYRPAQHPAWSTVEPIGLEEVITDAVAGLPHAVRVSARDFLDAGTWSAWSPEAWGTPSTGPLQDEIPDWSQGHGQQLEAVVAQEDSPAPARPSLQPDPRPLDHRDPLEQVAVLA
As to the kind of experiment: BLI; mIL-11R-mFc loaded on antimouse Fc biosensors at 1.25 ug/mL in kinetics buffer; three-fold serial dilutions of WT IL-11 or enIL-11; apparent Kd; binding to enIL-11 performed by Antibody Solutions. The conditions noted are these: both partners purified.

Test [2] has as its target T2, biotinylated IL-11R-Fc (human, UniProt Q14626 24-370, biotin).
T2 construct: interleukin-11 receptor (IL-11R), human, Fc fusion; source: bought: Acro, ILR-H82F5
T2 sequence (looked up): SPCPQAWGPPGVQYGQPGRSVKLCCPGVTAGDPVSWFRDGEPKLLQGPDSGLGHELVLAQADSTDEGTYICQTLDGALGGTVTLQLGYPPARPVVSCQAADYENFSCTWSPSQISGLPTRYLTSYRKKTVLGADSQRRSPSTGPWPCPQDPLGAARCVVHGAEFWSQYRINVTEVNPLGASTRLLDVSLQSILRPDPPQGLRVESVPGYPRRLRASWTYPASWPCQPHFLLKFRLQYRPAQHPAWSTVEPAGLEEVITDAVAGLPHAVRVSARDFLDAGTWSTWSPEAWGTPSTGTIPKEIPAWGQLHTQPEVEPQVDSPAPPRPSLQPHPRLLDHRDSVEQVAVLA
As to the kind of experiment: BLI; biotinylated IL-11R-Fc loaded on streptavidin biosensors at 1.25 ug/mL in kinetics buffer; three-fold serial dilutions of WT IL-11 or enIL-11; apparent Kd; binding to enIL-11 performed by Antibody Solutions. Particulars: both partners purified.

For test [3], the target named is T3, soluble mouse IL-11 receptor (mouse, UniProt Q64385 24-372).
T3 construct: interleukin-11 receptor, mouse (mIL-11R), soluble; also called mIL-11R; source: bought: Sino Biological, 50,075-M08H-100
T3 sequence (looked up): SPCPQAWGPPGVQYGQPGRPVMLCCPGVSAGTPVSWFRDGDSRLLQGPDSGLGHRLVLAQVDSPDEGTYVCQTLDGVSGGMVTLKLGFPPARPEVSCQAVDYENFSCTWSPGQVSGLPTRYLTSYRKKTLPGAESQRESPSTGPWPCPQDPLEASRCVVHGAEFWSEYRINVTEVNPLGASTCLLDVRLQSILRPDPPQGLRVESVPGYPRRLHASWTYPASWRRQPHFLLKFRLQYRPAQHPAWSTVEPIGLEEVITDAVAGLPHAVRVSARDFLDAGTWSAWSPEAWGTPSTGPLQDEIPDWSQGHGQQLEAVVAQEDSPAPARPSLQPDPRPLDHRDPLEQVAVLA
As to the kind of experiment: flow cytometry on cells; yeast-displayed IL-11 variants incubated with varying concentrations of soluble IL-11R or mIL-11R overnight at room temperature, washed with BPBS; receptor detected with anti-his AF647, display with anti-c-myc; apparent Kd from the fraction bound of the expressing population. Particulars: one partner purified.

B1: soluble recombinant wild-type human IL-11 (ligand)
chain: SPDPRAELDSTVLLTRSLLADTRQLAAQLRDKFPADGDHNLDSLPTLAMSAGALGALQLPGVLTRLRADLLSYLRHVQWLRRAGGSSLKTLEPELGTLQARLDRLLRRLQLLMSRLALPQPPPDPPAPPLAPPSSAWGGIRAAHAILGGLHLTLDWAVRGLLLLKTRL
notes: interleukin-11 (IL-11), human; also called WT IL-11; IL-11 WT; source: E. coli BL21, purified (cobalt beads), cleaved with TEV protease; not shown: His6, N-terminal, cleaved; thioredoxin, N-terminal, cleaved
With B1, the Kd in test [1] was 11 ± 0.3 nM; in test [2] it was 9.5 ± 0.3 nM.

B2: enIL-11 (engineered human IL-11, GIPR RA S60T), soluble (designed binder)
chain: SPDPRAELGSIVLRTRSLLADTRQLAAQLRDKFPADGDHNLDSLPTPAMTARALGALQLPGVLTRLRADLLSYLRHVQWLRRAGGSSLKTLEPELGTLQARLDRLLRRLQLLMSRLALPQPPPDPPAPPLAPPSSAAGGIRAAHAILGGLHLTLDWAVRGLLLLKTRL
notes: interleukin-11 (IL-11), human; source: E. coli BL21, purified (cobalt beads), cleaved with TEV protease; not shown: His6, N-terminal, cleaved; thioredoxin, N-terminal, cleaved
For B2, the Kd in test [1] is 0.16 ± 0.01 nM; in test [2], 0.41 ± 0.01 nM.

B3: yeast-displayed wild-type human IL-11 (ligand, UniProt P20809 22-199, looked up)
chain: PGPPPGPPRVSPDPRAELDSTVLLTRSLLADTRQLAAQLRDKFPADGDHNLDSLPTLAMSAGALGALQLPGVLTRLRADLLSYLRHVQWLRRAGGSSLKTLEPELGTLQARLDRLLRRLQLLMSRLALPQPPPDPPAPPLAPPSSAWGGIRAAHAILGGLHLTLDWAVRGLLLLKTRL
notes: interleukin-11 (IL-11), human, residues Pro22 to Leu199 of the precursor; also called IL-11 WT; WT IL-11; not shown: c-myc, C-terminal, kept
For the molecule B3, the Kd in test [3] is 2.2 ± 0.3 nM.

B4: yeast-displayed mouse IL-11 wild-type (ligand, UniProt P47873 22-199, looked up)
chain: PGPPAGSPRVSSDPRADLDSAVLLTRSLLADTRQLAAQMRDKFPADGDHSLDSLPTLAMSAGTLGSLQLPGVLTRLRVDLMSYLRHVQWLRRAGGPSLKTLEPELGALQARLERLLRRLQLLMSRLALPQAAPDQPVIPLGPPASAWGSIRAAHAILGGLHLTLDWAVRGLLLLKTRL
notes: interleukin-11, mouse; also called mIL-11; mIL-11 WT; not shown: c-myc, C-terminal, kept
As to B4, the Kd in test [3] is 3.1 ± 0.8 nM.
